In US20030180744A1 (published 2003):

What was measured:
[1] = molecular target: T1, hKGF receptor present in the PC-3 plasma membrane extracts (UniProt P21802-3 22-822, limits assumed); test: native gel electrophoretic mobility shift of 125I-hKGF by PC-3 plasma membrane extract
T1 construct: A crude detergent extract, not a purified protein; Two complexes (C1, C2) were seen; also called component found in the PC-3 membrane extracts
Experimental: (§1) For electrophoretic mobility shift gels, about 3×10⁷ PC-3 cells were gently spun and washed with PBS and then lysed by mixing with equal volume of lysis buffer containing 40 mM Hepes, pH 7.4, 150 mM NaCl, 20% glycerol, 2% triton X-100, 0.1% sodium azide, 3 mM MgCl₂, 3 mM EGTA, 2 μM aprotinin, 2 μM leupeptin, 2 mM PMSF, and 400 μM sodium orthovanadate. Following 15 min incubation on ice the extract was spun at 11,000 g at 4° C. for 30 min to remove debris and nuclei and the supernatant was aliquoted and stored at −70° C. […] Following a 10 min incubation at room temperature, 6× loading dye was added to achieve 1× concentration, and the samples were loaded onto a 5% or 10% native TBE polyacrylamide gel. The gel was prerun at room temperature at 100 Volts. Following loading, the gel was run at 200 Volts for 5 min and then at 100 Volts for 30-60 min at room temperature. The radioactive bands were then visualized by autoradiography.

[2] = molecular target: T1, hKGF receptor present in the PC-3 …; test: gel shift competition: unlabeled hKGF against 125I-hKGF with PC-3 plasma membrane extract
Experimental: as §1

T1 sequence (P21802 other isoform, or with tags, fused parts or gaps limits assumed): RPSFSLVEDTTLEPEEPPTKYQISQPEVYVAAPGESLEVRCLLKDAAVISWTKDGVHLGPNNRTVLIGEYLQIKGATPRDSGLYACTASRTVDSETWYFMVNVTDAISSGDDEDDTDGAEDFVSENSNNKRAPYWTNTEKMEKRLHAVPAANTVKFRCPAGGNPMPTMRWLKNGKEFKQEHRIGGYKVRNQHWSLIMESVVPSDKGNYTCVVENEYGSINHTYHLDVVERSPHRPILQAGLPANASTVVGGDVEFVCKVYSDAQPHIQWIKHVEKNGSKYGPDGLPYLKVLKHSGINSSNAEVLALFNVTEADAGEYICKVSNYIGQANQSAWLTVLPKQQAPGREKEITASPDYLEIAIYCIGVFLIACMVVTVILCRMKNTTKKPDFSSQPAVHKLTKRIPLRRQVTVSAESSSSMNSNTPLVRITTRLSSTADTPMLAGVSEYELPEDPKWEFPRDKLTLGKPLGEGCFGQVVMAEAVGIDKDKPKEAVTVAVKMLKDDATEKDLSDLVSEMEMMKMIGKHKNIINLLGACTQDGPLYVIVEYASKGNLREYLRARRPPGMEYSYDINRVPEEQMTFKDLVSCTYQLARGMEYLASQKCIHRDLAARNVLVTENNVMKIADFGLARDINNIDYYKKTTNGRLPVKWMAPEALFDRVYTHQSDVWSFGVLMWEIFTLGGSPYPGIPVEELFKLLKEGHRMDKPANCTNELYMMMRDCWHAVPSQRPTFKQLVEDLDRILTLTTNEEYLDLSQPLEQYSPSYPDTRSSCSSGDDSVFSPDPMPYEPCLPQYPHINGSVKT

Kd [1]: ~8 nM
IC50 [2]: 70 nM
B1: Recombinant human Keratinocyte Growth Factor (hKGF) (ligand, UniProt P21781 32-194, looked up)
chain: CNDMTPEQMATNVNCSSPERHTRSYDYMEGGDIRVRRLFCRTQWYLRIDKRGKVKGTQEMKNNYNIMEIRTVAVGIVAIKGVESEFYLAMNKEGKLYAKKECNEDCNFKELILENHYNTYASAKWTHNGGEMFVALNQKGIPVRGKKTKKEQKTAHFLPMAIT
notes: also called FGF-7
